Numbering of substitutions follows the chain as printed. Names and notes keep the numbering of the source.
B1: Fc-containing molecule with triple mutation D399K, E356K, E357K (Fc fusion)
chain: HMAEVQLQQSGAELVKPGSSVKISCKASGYTFANNFMHWIKQQPGNGLEWIGWIYPGDGDTEYNQKFSGKATLTADKSSSTAYMQLNSLTSEDSAVYFCIRLTEGTTYWGQGVMVTVSSGGGGSGGGGSGGGGSQFVLTQPNSVSTNLGSTVKLSCKRSTGNIGSNYVNWYQQHEGRSPTTMIYRDDKRPDGVPDRFSGSIDGSSNSALLTINNVQTEDEADYFCQSYSRGVSPVFGGGTKLTVLAAAEPKSCDKTHTCPPCPAPELLGGPSVFLFPPKPKDTLMISRTPEVTCVVVDVSHEDPEVKFNWYVDGVEVHNAKTKPREEQYNSTYRVVSVLTVLHQDWLNGKEYKCKVSNKALPAPIEKTISKAKGQPREPQVYTLPPSRKKMTKNQVSLTCLVKGFYPSDIAVEWESNGQPENNYKTTPPVLKSDGSFFLYSKLTVDKSRWQQGNVFSCSVMHEALHNHYTQKSLSLSPGK
B2: Fc-containing molecule with triple mutation K409D, K392D, K370D (other)
chain: EPKSCDKTHTCPPCPAPELLGGPSVFLFPPKPKDTLMISRTPEVTCVVVDVSHEDPEVKFNWYVDGVEVHNAKTKPREEQYNSTYRVVSVLTVLHQDWLNGKEYKCKVSNKALPAPIEKTISKAKGQPREPQVYTLPPSREEMTKNQVSLTCLVDGFYPSDIAVEWESNGQPENNYDTTPPVLDSDGSFFLYSDLTVDKSRWQQGNVFSCSVMHEALHNHYTQKSLSLSPGK
B3: Fc-containing molecule with triple mutation K409D, K392D, K439D (other)
chain: B2 chain with D155K, K224D

Target: the molecule itself
Assay: homodimer formation; expressed alone in 293-6E, western blot with goat anti-human Fc HRP
Description: FIG. 11. […] Fc molecules were detected using goat-anti-human Fc HRP conjugated at 1:10,000.
DNA was transfected into human embryonic kidney cell line 293-6E using Lipofectamine™ 2000 reagent (Invitrogen). The cell culture supernatant was harvested 3-4 days after transfection and analyzed on SDS-PAGE Gels under non-reduced condition. The gel was then transferred to nitrocellulose membrane and subject to western analysis using peroxidase-conjugated goat anti-human IgG antibody (Jackson ImmunoResearch Laboratories) and results are shown in FIG. 10.
Mutants were made and cells transfected as described in Example 1. When the constructs were co-transfected, a 1:1 ratio of plasmids were used. Heterodimer and homodimers were detected by Western blot using goat-anti-human Fc HRP conjugated antibody. […] Similarly, Fc-containing molecules having triple mutations wherein negative-charged residues were changed to positive-charged residues (D399K,E356K,E357K) were unable to be detected when expressed alone. When co-expressed with an Fc-containing molecule having mutations of opposite charge polarity, however, heterodimers only were detected.

Binding result, no binding:
B1
B2
B3

Reference: patent US20100286374A1 (Amgen, published 2010)
